Data published in paper PMC10450741.

Target: biotinylated γTuRC-mBFP-AviTag (human | human (endogenous in HeLa-Kyoto)) (UniProt Q9BSJ2)
Assay: TIRF microscopy; γTuRC nucleation assay: biotinylated γTuRC-mBFP-AviTag held on the glass by NeutrAvidin (1-2.5 nM used), 11-15 µM tubulin, 1 mM GTP, 1 mM ATP, with or without mScarlet-KIF2A (20-100 nM), mCherry-MCAK or spastin (100 nM); 33°C, 20-30 min

Chain of biotinylated γTuRC-mBFP-AviTag (human | human (endogenous in HeLa-Kyoto)) (Q9BSJ2 whole entry, looked up): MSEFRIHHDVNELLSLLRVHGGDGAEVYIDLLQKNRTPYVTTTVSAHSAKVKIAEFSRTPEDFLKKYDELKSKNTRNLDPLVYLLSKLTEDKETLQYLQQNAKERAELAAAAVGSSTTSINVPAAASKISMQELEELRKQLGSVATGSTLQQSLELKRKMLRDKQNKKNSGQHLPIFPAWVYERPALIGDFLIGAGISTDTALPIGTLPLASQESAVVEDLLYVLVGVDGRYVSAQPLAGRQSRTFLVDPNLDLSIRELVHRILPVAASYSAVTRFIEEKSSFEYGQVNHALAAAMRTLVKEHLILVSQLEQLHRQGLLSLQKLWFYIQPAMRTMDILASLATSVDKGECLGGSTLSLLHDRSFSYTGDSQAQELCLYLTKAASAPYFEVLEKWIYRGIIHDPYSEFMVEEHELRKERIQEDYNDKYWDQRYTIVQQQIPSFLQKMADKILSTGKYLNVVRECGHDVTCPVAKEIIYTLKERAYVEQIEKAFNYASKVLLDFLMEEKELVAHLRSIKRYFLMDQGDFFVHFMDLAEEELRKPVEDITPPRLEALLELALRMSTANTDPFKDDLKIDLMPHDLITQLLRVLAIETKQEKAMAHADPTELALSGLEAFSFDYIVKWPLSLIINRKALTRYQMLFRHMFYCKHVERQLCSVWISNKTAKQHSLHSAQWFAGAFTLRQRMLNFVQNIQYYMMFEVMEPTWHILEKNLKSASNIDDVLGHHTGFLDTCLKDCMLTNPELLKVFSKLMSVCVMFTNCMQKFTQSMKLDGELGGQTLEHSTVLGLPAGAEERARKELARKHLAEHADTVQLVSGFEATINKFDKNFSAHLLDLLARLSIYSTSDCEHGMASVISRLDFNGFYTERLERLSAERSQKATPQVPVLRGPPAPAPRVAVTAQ
Chain of microtubules polymerised from pig brain tubulin (P02550 whole entry): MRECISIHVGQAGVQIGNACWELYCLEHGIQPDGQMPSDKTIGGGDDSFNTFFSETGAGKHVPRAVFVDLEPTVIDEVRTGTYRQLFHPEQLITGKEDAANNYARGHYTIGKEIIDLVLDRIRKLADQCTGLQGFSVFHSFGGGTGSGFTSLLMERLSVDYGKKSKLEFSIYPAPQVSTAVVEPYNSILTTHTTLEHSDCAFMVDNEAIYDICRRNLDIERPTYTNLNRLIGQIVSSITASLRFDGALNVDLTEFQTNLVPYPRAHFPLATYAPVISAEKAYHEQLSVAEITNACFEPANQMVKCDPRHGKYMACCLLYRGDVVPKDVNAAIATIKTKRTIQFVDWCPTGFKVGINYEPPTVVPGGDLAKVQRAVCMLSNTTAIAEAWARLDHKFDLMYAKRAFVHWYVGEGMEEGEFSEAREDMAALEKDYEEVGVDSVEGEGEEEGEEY
Chain of microtubules polymerised from pig brain tubulin (Q767L7 whole entry): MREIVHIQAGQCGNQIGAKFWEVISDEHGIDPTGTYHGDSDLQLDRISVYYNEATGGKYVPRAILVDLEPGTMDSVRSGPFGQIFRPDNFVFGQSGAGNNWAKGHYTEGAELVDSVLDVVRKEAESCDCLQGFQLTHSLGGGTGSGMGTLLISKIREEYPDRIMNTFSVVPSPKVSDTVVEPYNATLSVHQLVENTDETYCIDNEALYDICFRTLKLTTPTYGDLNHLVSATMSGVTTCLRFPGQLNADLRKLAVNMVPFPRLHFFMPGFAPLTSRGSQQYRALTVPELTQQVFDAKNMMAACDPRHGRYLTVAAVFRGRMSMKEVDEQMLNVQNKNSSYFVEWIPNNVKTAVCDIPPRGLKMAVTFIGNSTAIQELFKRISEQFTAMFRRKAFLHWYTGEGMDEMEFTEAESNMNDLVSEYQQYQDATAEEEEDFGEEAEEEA

- percent of microtubules released from immobilized γTuRC (with 20 nM mScarlet-KIF2A alone): 2%
- percent of microtubules released from immobilized γTuRC (with 100 nM spastin alone): 1%
- percent of microtubules released from immobilized γTuRC (with 100 nM spastin and 20 nM mScarlet-KIF2A): 40%
Substance: microtubules polymerised from pig brain tubulin (from UniProt P02550 1-451; Q767L7 1-444) (complex)
